Data published in US6344436B1, “Lipophilic peptides for macromolecule delivery” (Baylor College of Medicine, priority 1996, dated 2002).
Ends that are not written are not given here. * marks the point of attachment. N,N‑distearylglycyl = CCCCCCCCCCCCCCCCCCN(CCCCCCCCCCCCCCCCCC)CC(=O)*

Key:
[1] = Particle size of peptide-macromolecule complex after enmeshment and condensation; assay type: physicochemical; settings: for particle size: peptide added to DNA in the absence of condensing peptide, CHAPS micelles diluted below cmc
Method: Subsequently, the nucleic acid becomes coated with lipophilic peptide and enmeshed; forming a condensed nucleic acid/lipophilic peptide complex while CHAPS detergent monomers can be dialyzed out of the resulting mixture (FIGURE EIGHT).
The degree of condensation of the nucleic acid given the treatment of example two is shown as FIGURE NINE. When distearyl-glycyl-apoE-3^129-169 was added to DNA previously condensed with K8, the particle size increased only ˜20%. The addition of JTS-1 increased the particle size another 40%. By contrast, addition of distearyl-glycyl-apoE-3^129-169 to DNA in the absence of condensing peptide gave a smaller particle, about 60 nm. Condensation and enmeshment with the distearyl-glycyl-apoE-3^129-169Q142, the mutant peptide, also gave a small, 60 nm monodisperse particle population. When distearyl-glycyl-apoE-3^129-169 in 10 mM CHAPS was diluted without DNA being present, the resulting vesicles were ˜450 nm in diameter. […] Free DNA in the control remained at the top of the gradient, while the enmeshed-condensed complex was found at the bottom of the centrifugation tube.

293 epithelial cells = experiment: Transfection of 293 epithelial cells grown in lovastatin to up-regulate LDL receptors; assay type: cell-based; settings: for transfection ability of peptide-macromolecule complexes (FIG. 10): comparison between complexes
Method: The ability of the formulations of example three to transfect cells was tested in 293 epithelial cells grown in 1 μg mL^−1 lovastatin overnight to up-regulate LDL receptors. […] As expected from the reduced binding of the mutant peptide to the LDL receptor, expression by mutant peptide complexes was about 5% of that observed with the wild-type apoE peptide complexes. We conclude that the diacyl-peptide functions as a condensing agent, an encapsulation agent, a targeting agent and a lytic agent. Apart from the well defined receptor ligand domain, the sequence regions that contain the other functions remain to be elucidated.

LDL receptor = molecular target: T1, LDL receptor (Homo sapiens, UniProt P01130); experiment: Cytosis and degradation of labeled LDL complexed with lipophilic peptide (FIG. 4); assay type: cell-based
T1 construct: endogenous in cells
T1 sequence (P01130 22-860, species assumed): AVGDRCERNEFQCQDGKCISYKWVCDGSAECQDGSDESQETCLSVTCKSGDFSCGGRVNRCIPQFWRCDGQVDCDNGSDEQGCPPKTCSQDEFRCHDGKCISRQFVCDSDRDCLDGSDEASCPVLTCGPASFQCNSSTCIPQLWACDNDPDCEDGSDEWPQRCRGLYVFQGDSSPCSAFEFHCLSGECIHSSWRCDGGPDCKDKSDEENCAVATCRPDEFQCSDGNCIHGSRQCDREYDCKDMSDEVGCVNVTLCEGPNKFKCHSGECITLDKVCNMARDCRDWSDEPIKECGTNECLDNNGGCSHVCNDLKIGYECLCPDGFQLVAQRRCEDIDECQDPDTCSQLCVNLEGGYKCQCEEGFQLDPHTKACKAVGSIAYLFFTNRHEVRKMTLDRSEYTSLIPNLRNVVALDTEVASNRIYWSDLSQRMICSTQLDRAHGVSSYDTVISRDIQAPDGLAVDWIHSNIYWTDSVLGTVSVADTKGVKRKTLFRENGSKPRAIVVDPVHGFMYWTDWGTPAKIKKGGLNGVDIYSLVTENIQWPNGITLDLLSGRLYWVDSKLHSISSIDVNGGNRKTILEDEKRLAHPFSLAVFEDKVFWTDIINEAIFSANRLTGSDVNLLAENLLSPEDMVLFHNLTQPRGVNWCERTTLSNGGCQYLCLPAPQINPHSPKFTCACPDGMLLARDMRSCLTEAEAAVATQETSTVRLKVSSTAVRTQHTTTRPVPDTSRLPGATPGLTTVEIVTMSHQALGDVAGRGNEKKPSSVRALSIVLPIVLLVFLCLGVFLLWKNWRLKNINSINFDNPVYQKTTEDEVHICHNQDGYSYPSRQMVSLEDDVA

Substance: GLFEALLELLESLWELLLEA [JTS-1, reference compound]
- further increase in particle size ([1]; JTS-1 added to K8-condensed DNA plus distearyl-glycyl-apoE-3^129-169): 40%
- necessity of component for efficient gene transfer (293 epithelial cells; 293 epithelial cells (FIGURE TENc)): Neither the galtoselated K8 or JTS-1 were necessary

Substance: distearyl-glycyl-apoE-3^129-169 ({N,N‑distearylglycyl}-STEELRVRLASHLRKLRKRLLRDADDLQKRLAVYQAGAREG)
- cytosis and degradation of labeled LDL complexed with peptide (FIG. 4) (LDL receptor): cytosed and subsequently degraded
- comparative size of peptide complexes ([1]; diameter after condensation of DNA (FIG. 9)): greatest reduction in diameter
- particle size [1]: about 60 nm
- increase in particle size ([1]; peptide added to DNA previously condensed with K8): ~20%
- diameter of resulting vesicles ([1]; peptide in 10 mM CHAPS diluted without DNA being present): ~450 nm
- transfection ability of peptide-macromolecule complexes (FIG. 10) (293 epithelial cells): No significant transfection difference

Substance: distearyl-glycyl-apoE-3^129-169(Q142)
- cytosis and degradation of labeled LDL complexed with peptide (FIG. 4) (LDL receptor): significantly less cytosis and degradation
- particle size [1]: 60 nm
- expression relative to wild-type apoE peptide complexes (293 epithelial cells; 293 epithelial cells, 1 μg mL^−1 lovastatin overnight): about 5%
- transfection ability of peptide-macromolecule complexes (FIG. 10) (293 epithelial cells): significantly less transfection
